Data on ten molecules can be found in doi:10.1101/2021.08.19.457009 (bioRxiv, 2021).

In assay [1] the target is T1, human 6His-14-3-3ζ (human, UniProt P63104 1-245).
T1 sequence (looked up): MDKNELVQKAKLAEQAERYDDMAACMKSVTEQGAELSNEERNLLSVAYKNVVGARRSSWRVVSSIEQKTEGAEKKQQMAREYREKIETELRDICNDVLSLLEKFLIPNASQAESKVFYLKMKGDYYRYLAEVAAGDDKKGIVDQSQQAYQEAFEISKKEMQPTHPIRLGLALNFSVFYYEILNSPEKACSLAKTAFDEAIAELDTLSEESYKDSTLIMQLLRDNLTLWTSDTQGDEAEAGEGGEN
Description: pull-down.

Assay [2] deals with T1, human 6His-14-3-3ζ. The assay can be described thus: ITC. For orientation: ITC needs no label: the signal is the heat of the interaction.

Where a chain is given by its changes, count along the chain named. Names may count otherwise. Non-standard residues stand in square brackets, D forms with d. No end group written: not given here. pS = N[C@@H](COP(=O)(O)O)C(=O)O

Molecule “SNAP-TM-HCN1CT reporter lacking the region containing peptide C (amino acids 850-880) (domain or fragment)” yielded an amount pulled down relative to CT (598-910) with human 6His-14-3-3ζ [1] of 0.61 fold.

In turn, “SNAP-TM-HCN1CT reporter lacking the distal 30 amino acid block with the TRIP8b-tripeptide binding site (domain or fragment)” had an amount pulled down relative to CT (598-910) in the assay with human 6His-14-3-3ζ [1] of 1.18 fold.

“SNAP-TM-HCN1CT reporter also lacking the region containing peptide B (residues 790-820) (domain or fragment)”: the amount pulled down relative to CT (598-910) with human 6His-14-3-3ζ [1] came out at 0.23 fold.

In the assay with human 6His-14-3-3ζ [2], VRPLSA[pS]QPSL [HCN1 phospho-peptide B] displayed a Kd of 25 µM.

B1: SNAP-TM-HCN1CT reporter CT_(731-910; Δ804-814; Δ861-871) (domain or fragment, mouse, UniProt O88704 731-910, looked up)
chain: VQQTQTQTQQQQQQQQQQQQQQQQQQQQQQQQQQQQQQQQQQQQQPQTPGSSTPKNEVHKSTQALHNTNLTKEPHEVSTLISRPHPTVGESLASIPQPVAAVHSTGLQAGSRSTVPQRVPPNRGVPPAPPPPAAVQRESPSVLNTDPDAEKPRFASNL
For the molecule B1, the “amount pulled down relative to CT_(731-910)” value with human 6His-14-3-3ζ [1] was 0.26 fold.

B2: SNAP-TM-HCN1CT reporter CT_(731-910) (domain or fragment, mouse, UniProt O88704 731-910, looked up)
chain: VQQTQTQTQQQQQQQQQQQQQQQQQQQQQQQQQQQQQQQQQQQQQPQTPGSSTPKNEVHKSTQALHNTNLTKEVRPLSASQPSLPHEVSTLISRPHPTVGESLASIPQPVAAVHSTGLQAGSRSTVPQRVTLFRQMSSGAIPPNRGVPPAPPPPAAVQRESPSVLNTDPDAEKPRFASNL
Turning to B2, in the assay with human 6His-14-3-3ζ [1], the “amount pulled down relative to CT_(598-910)” value was 1.39 fold.

B3: SNAP-TM-HCN1CT reporter CT_(731-910; S810A; S867A) (domain or fragment, mouse, UniProt O88704 731-910, looked up)
chain: B2 chain with S80A, S137A
Consider B3, for which, in the assay with human 6His-14-3-3ζ [1], the “amount pulled down relative to CT_(731-910)” value came out at 0.33 fold.

B4: SNAP-TM-HCN1CT reporter truncated of residues 803-910 (domain or fragment, mouse, UniProt O88704 598-802, looked up)
chain: LNTGVFNNQENEILKQIVKHDREMVQAIPPINYPQMTALNCTSSTTTPTSRMRTQSPPVYTATSLSHSNLHSPSPSTQTPQPSAILSPCSYTTAVCSPPIQSPLATRTFHYASPTASQLSLMQQPQQQLPQSQVQQTQTQTQQQQQQQQQQQQQQQQQQQQQQQQQQQQQQQQQQQQQPQTPGSSTPKNEVHKSTQALHNTNLTK
In the case of B4, the “amount pulled down relative to CT_(598-910)” value with human 6His-14-3-3ζ [1] is 0.2 fold.

SRMRTQ[pS]PPVY [HCN1 phospho-peptide A] showed a Kd with human 6His-14-3-3ζ [2] of 16 µM.

Take TLFRQM[pS]SGAI [HCN1 phospho-peptide C]: binding with human 6His-14-3-3ζ [2] was put at a Kd of 15 µM.

In general, Kd refers to the constant that tells how readily two partners part at equilibrium. A low value points to higher affinity.
